Series [1] deals with the molecule itself. Put plainly: native MS; nano-ESI-MS of RNA-free N protein (10 μM monomer) incubated with synthetic 24-mer RNA.
Series [2] concerns the molecule itself. The series can be described thus: native MS; nano-ESI-MS of RNA-free N protein (10 μM monomer) incubated with synthetic 12-mer RNA; 2:1 N/RNA molar ratio for BUNV-N.
Series [3] concerns the molecule itself. The series can be described thus: native MS; nano-ESI-MS of BUNV-N bound to endogenous E. coli RNA (as purified; traces also left after the RNA-removal step); ammonium acetate buffer pH 6.8.
Series [4] addresses T1, BUNV-N nucleocapsid protein (Bunyamwera virus, UniProt P16495 1-233). Put plainly: native nanoESI-MS; N:RNA 6:1, low population; 50 mM ammonium acetate, pH 6.8 (stated for RNA-free BUNV-N); 10 uM final N protein (monomer basis); temperature not given. The note with it: protein: recombinant; tags: His6-SUMO, removed.
Series [5] addresses T2, SBV-N nucleocapsid protein (Schmallenberg virus, UniProt H2AM13 1-233).
T2 sequence: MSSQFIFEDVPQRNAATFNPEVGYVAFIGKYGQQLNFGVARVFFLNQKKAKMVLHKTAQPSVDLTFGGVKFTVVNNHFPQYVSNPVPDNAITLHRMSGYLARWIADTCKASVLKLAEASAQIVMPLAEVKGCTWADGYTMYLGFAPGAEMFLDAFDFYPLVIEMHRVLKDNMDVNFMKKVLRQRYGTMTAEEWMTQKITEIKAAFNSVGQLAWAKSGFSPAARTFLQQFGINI
Put plainly: native nanoESI-MS; N:RNA 4:1 and 5:1 (equal major), 6:1, 8:1; 50 mM ammonium acetate, pH 6.8 (stated for RNA-free BUNV-N); 10 uM final N protein (monomer basis); temperature not given. Particulars: protein: recombinant; tags: His6-SUMO, removed; chain copies: 4.

Series [6] has as its target T1, BUNV-N nucleocapsid protein. The series can be described thus: native nanoESI-MS; N:RNA 5:1; 50 mM ammonium acetate, pH 6.8 (stated for RNA-free BUNV-N); 10 uM final N protein (monomer basis); temperature not given. The note with it: protein: recombinant; tags: His6-SUMO, removed.
In series [7] the target is T2, SBV-N nucleocapsid protein. The series can be described thus: native nanoESI-MS; N:RNA 3:1, 4:1 (major), 4:2, 5:2; 50 mM ammonium acetate, pH 6.8 (stated for RNA-free BUNV-N); 10 uM final N protein (monomer basis); temperature not given. The note with it: protein: recombinant; tags: His6-SUMO, removed; chain copies: 4.
The target of series [8] is T2, SBV-N nucleocapsid protein. The series can be described thus: native nanoESI-MS; N:RNA 4:4 (major), 8:8, 10:10, 12:12; 50 mM ammonium acetate, pH 6.8 (stated for RNA-free BUNV-N); 10 uM final N protein (monomer basis); temperature not given. Particulars: protein: recombinant; tags: His6-SUMO, removed; chain copies: 4.
Series [9] has as its target T1, BUNV-N nucleocapsid protein. The series can be described thus: native nanoESI-MS; N:RNA 3:2, 3:3, 4:4 (3:3 and 4:4 major); mixed at 2:1; 50 mM ammonium acetate, pH 6.8 (stated for RNA-free BUNV-N); 10 uM final N protein (monomer basis); temperature not given. The note with it: protein: recombinant; tags: His6-SUMO, removed.
Series [10] concerns the molecule itself. The series can be described thus: native MS; nano-ESI-MS of RNA-free N protein (10 μM monomer) incubated with synthetic 48-mer RNA.
Series [11] concerns the molecule itself. Put plainly: native MS; nano-ESI-MS of RNA-free N protein (10 μM monomer) incubated with synthetic 60-mer RNA.
In series [12] the target is T2, SBV-N nucleocapsid protein. The series can be described thus: native nanoESI-MS, CID MS/MS; N:RNA 4:2, 5:2; 4:2 also in mixture with BUNV-N; 50 mM ammonium acetate, pH 6.8 (stated for RNA-free BUNV-N); 10 uM final N protein (monomer basis); temperature not given. Particulars: protein: recombinant; tags: His6-SUMO, removed; chain copies: 4.
Series [13] concerns the target T1, BUNV-N nucleocapsid protein. Put plainly: native nanoESI-MS, CID MS/MS; N:RNA 3:1, 4:2 (major), 5:2, 6:3; 4:2 also in mixture with SBV-N; 50 mM ammonium acetate, pH 6.8 (stated for RNA-free BUNV-N); 10 uM final N protein (monomer basis); temperature not given. The note with it: protein: recombinant; tags: His6-SUMO, removed.

Where “and” joins values, the source holds several entries; their conditions need not be identical. Equal entries are not always repeated.

Broadly, the stoichiometry N is a count of units in the complex or per binding partner.

B1: Bunyamwera virus nucleocapsid (N) protein (natural protein)
chain: MIELEFHDVAANTSSTFDPEVAYANFKRVHTTGLSYDHIRIFYIKGREIKTSLAKRSEWEVTLNLGGWKITVYNTNFPGNRNNPVPDDGLTLHRLSGFLARYLLEKMLKVSEPEKLIIKSKIINPLAEKNGITWNDGEEVYLSFFPGSEMFLGTFRFYPLAIGIYKVQRKEMEPKYLEKTMRQRYMGLEAATWTVSKLTEVQSALTVVSSLGWKKTNVSAAARDFLAKFGINM
notes: Nucleocapsid (N) protein of Bunyamwera virus (BUNV); As purified it carries E. coli RNA (tetramer with about 44 nt); the RNA-free form is obtained by high salt treatment; also called BUNV-N; BUNVN; source: tag removed; endogenous RNA removed with high ionic strength buffers where stated
Regarding B1, the “stoichiometry N” value was 5 and 6 in series [1]; 3 in series [2]; 4 in series [3].

B2: 60-mer RNA (ssRNA)
RNA: AGUAGUGUACUCCACACUACAAACUUGCUAUUGUUGAAAAUCGCUGUGCUAUUAAAUCCA
Regarding B2, the binding result in [4] and in series [5] was “binds” each time.
With AGUAGUGUACUCCACACUACAAACUUGCUAUUGUUGAAAAUCGCUGUG (ssRNA) [48-mer RNA], the binding result in series [6] and in series [7] was “binds” throughout.
As for AGUAGUGUACUC (ssRNA) [12-mer RNA], the binding result in [8] and in [9] was “binds” in each case.

B3: Schmallenberg virus nucleocapsid (N) protein (natural protein)
chain: MSSQFIFEDVPQRNAATFNPEVGYVAFIGKYGQQLNFGVARVFFLNQKKAKMVLHKTAQPSVDLTFGGVKFTVVNNHFPQYVSNPVPDNAITLHRMSGYLARWIADTCKASVLKLAEASAQIVMPLAEVKGCTWADGYTMYLGFAPGAEMFLDAFDFYPLVIEMHRVLKDNMDVNFMKKVLRQRYGTMTAEEWMTQKITEIKAAFNSVGQLAWAKSGFSPAARTFLQQFGINI
notes: Nucleocapsid (N) protein of Schmallenberg virus (SBV); measured monomer mass 26 269 Da; also called SBV-N; SBVN; source: tag removed; high salt-treated
In the case of B3, the “stoichiometry N” value in [1] is 5; in series [10], 3; in series [11], 6; in series [2] it was 4 and 8 and 10 and 12.
With AGUAGUGUACUCCACACUACAAAC (ssRNA) [24-mer RNA], the binding result in [12] and in series [13] was “binds” each time.
